# Settings: Escherichia coli (strain K12); pH 7.8; 25 °C; GdnHCl; Chromatography; Tris-HCl 5 mM; KCl 200 mM; reversible: yes; whole UniProt chain shown
protein,measurement,value
"Co-chaperonin GroES wild type, P0A6F9 (protein) MNIRPLHDRVIVKRKEVETKSAGGIVLTGSAAAKSTRGEVLAVGNGRILENGEVKPLDVKVGDIVIFNDGYGVKSEKIDNEEVLIMSESDILAIVEA",denaturant m value,2.3 kcal/mol/M
same,unfolding free energy,2.3 kcal/mol
